Where a chain is given by its changes, count along the chain named.

The chains are these.
B1: Tre_291_sc (antibody, V domains shown)
VH: QVQLKQSGPGLVQPSQSLSITCTVSGFSLTSYGVHWVRQSPGKGLEWLGVIWRRGSTDYNAAFMSRLSITKDTSKSQVFFKMNSLQTDDTAIYYCAGVRGDAMDYWGQGTSVTVSS
VL: DIVMTQSHKSMSTSVGDRVSVTCKASQNVGTNVAWYQQKPGQSPKALIYSASYRYSGVPDRFTGSGSGTDFTLTISNVQSEDLAEYFCQQYNSYPLTFGGGTKLEIK
B2: HuP4_11_sc (antibody, V domains shown)
VH: EVQLVESGGALVQPGRSLRLSCAVSGFTLSNYGVHWVRQAPGKGLEWVAVILRRGSTDYNAAFMSRFTISKDNSKNTVYLQMNSLRADDTAVYYCAKTAVVAGDYFDYWGQGTTVTVSS
VL: B1 VL with H8Q, S10F, V21I, A46L, V78M, E85D
B3: HuP4_41_sc (antibody, V domains shown)
VH: QVQLVESGGGVVQPGGSLRLSCVVSGFTLTNYGVHWVRQAPGKGLEWLAVILRRGSTDYNAAFMSRLAISKDNSKNTVYLELNSLRLDDTAVYYCAKTAVVAGDYFDYWGQGTTVTVSS
VL: B1 VL with H8Q, S10F, V21I, A46L, V78M, E85D
B4: HuP4_51_sc (antibody, V domains shown)
VH: B3 VH with T28S, A49G
VL: B1 VL with H8Q, S10F, V21I, A46L, V78M, E85D
B5: I67_sc (antibody, V domains shown)
VH: DVQLQESGPSLVQPSQSLSINCTVSGFSLSSYGVHWVRQSPGKGLEWLGVIWRRGSTDYNAAFMSRLSITKDNSKSQVFFKMNRLQADDTATYYCAKGISTATSWFAYWGQGTLVTVSA
VL: B1 VL with S10F, G100A, I106L
B6: P4_sc (Fc fusion)
VH: QVQLKESGPSLVQPSQSLSITCTVSGFSLTNYGVHWVRQSPGKGLEWLGVILRRGSTDYNAAFMSRLSITKDNSKSQVFFKMNSLQADDTAIYYCAKTAVVAGDYFDYWGQGTTLTVSS
VL: B1 VL with S10F, G100T
B7: mAnE67_sc (antibody, V domains shown)
VH: EVQLVESGGGLVKPGGSRKLSCAASGFTFSDYGMHWVRQAPEKGLEWVAYISSGSSIIYYADTVKGRFTISRDNAKNTLFLQMTGLRSEDTAMYYCARKDYPYAMDYWGQGTSLAVSS
VL: B1 VL
B8: HuP4_IB_sc (Fc fusion)
VH: QVQLLESGPELVKPSATLSITCTVSGFSLTNYGVHWIRQAPGKGLEWLGVILRRGSTDYNAAFMSRFTISKDNSKNQVYFKLRSVTAEDTAVYYCAKTAVVAGDYFDYWGQGTMVTVSS
VL: DIQMTQSHSTLSLSVGDRVTITCKASQNVGTNVAWYQQKPGQPPKALIYSASYRYSGVPSRFSGSGSGTDFTLTISSVQAEDVAVYYCQQYNSYPLTFGPGTKLEIK
B9: T86_sc (antibody, V domains shown)
VH: QIQLVQSGPELKKPGETVKISCEASGYTFINYGMNWVKQAPGKGLKWMGWINTYTGEPTYADDFKGRFAFSLETSANTAYLQINNLKNEDTATYFCARKGYYGYPNYYAMDYWGQGTSVTVSS
VL: DIVMTQSQKFMSTSVGDRVSITCKASQNVGTAVAWYQQKPGQSPKLLIYSASNRYTGVPDRFTGSGSGTDFTLTISNMQSEDLADYFCQQYSSYPITFGTGTKLEIK
B10: T-31414h4 (antibody, V domains shown)
VH: QVQLVQSGAEVKKPGASVKVSCKASGYTFKSYEMHWVRQAPGQGLEWMGRINPSVGSTWYAQKFQGRVIMIRDTSTSTVYMELSSLRSEDTAVYYCARGKREGGTEYLRNWGQGTLVTVSS
VL: EIVLIQSPGILSLSPGERATLSCRASQSVSSSYLAWYQQKPGQAPRLLIYGASSRATGIPDRFSGSGSGTDFTLTISRLEPEDFAVYYCQQYHSYITFGGGTKVEIK
B11: 6-3m1 (antibody, V domains shown)
VH: QVQLKQSGAELVKPGASVKLSCTASGFSIKDTYVHWVKQRPEQGLEWIGKIDPANVNTKFDPKFQGKATITADTSSNTAYLQLSSLTSEDTAVYYCALYGYDDDAYYFDYWGQGTTLTVSS
VL: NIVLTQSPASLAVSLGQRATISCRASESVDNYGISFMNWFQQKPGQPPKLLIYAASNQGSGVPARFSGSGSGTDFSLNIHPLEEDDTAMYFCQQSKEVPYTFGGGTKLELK
B12: 23-7m1 (antibody, V domains shown)
VH: EVQLQQSGPELEKPGASVKISCKVSGYSFTDYNLNWVKQYNGKNLEWIGNIDPYSGGTRYNQKFKGKATLTIDQSSSTAYMHLKSLTSEDSAVYYCGLYGYDDDANYFDDWGQGTTLTVSS
VL: EIVLTQSPAIMSPSPGEKVTIACSASSSVSYMHWFQQKPGTSPKLWIYATSNLASGVPARFSGSGSGTSYSLTISRMEAEDVATYYCQQRSSYPLTFGAGTKLELK
B13: I-394h4 (antibody, V domains shown)
VH: EVQLQQSGPELVKPGASVKMSCKASGYTFTDYNMHWVKQSHGRTLEWIGYIVPLNGGSTFNQKFKGRATLTVNTSSRTAYMELRSLTSEDSAAYYCARGGTRFAYWGQGTLVTVSA
VL: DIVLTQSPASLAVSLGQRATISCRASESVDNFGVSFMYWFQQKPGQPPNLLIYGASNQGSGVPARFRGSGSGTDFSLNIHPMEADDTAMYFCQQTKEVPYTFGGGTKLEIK

One assay concerns the target T1, human CD39 recombinant antigen (UniProt P49961 38-478).
T1 chain: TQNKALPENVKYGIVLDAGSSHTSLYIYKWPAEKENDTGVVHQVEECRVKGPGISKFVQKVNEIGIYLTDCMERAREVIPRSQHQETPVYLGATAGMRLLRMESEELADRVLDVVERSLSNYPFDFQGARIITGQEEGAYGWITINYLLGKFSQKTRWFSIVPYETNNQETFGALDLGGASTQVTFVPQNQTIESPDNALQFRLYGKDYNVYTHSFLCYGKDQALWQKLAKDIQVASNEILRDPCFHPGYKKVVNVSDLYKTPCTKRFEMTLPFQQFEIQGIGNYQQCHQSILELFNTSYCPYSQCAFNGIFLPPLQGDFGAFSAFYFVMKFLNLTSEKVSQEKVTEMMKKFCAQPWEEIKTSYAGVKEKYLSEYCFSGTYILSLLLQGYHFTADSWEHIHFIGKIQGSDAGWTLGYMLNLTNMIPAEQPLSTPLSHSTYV
The experiment in a line: SPR.
Consider B1, for which the Kd was 2.22 nM.
On the same count and under the same terms, in the case of B2 it was 0.377 nM.
Take B3: the Kd is 0.106 nM.
For the molecule B4, the dissociation constant Kd worked out at 0.369 nM.
Consider B5, for which the Kd was determined as 1.65 nM.
With B6, the Kd worked out at 0.307 nM.
For B7, the dissociation constant (Kd) amounted to 4.75 nM.
Take B8: the Kd was determined as 0.396 nM.
Take B9: the Kd turned out to be 4.28 nM.

Another assay deals with T1, human CD39 recombinant antigen. Nature of the assay: SPR. The source holds these as a separate data set. A general note: SPR reads the build-up and loss of mass on a sensor chip optically.
On to B10, for which the Kd is 9.83 nM.
Consider B11, for which the Kd is 0.399 nM.
B12: the equilibrium dissociation constant (Kd) came to 0.573 nM.
With B13, the Kd is 0.956 nM.

Broadly, the Kd is a measure of binding affinity in units of concentration.

These data come from US20250215105A1 (published 2025).
